# According to the supplement of paper PMC9112550, “Optimization of the antimicrobial peptide Bac7 by deep mutational scanning” (BMC Biology, 2022):
# Tested on: Escherichia coli TOP10
# Test: shrunken log2 fold change of peptide-encoding DNA abundance (4.5 h post-induction vs induction); higher = less antimicrobial activity (less host growth inhibition)
# Conditions: time post-induction: 4.5 h; library: site-saturation at positions 5, 18, 19, 20
# 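Note: peptides expressed intracellularly from a pBAD plasmid library in pooled LB shake-flask culture, induced with 0.3% L-arabinose, DNA abundance read by NGS, three biological replicates, DESeq2 with apeglm shrinkage.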
row,Sequence,shrunken log2 fold change
1,RRIRLRPPRLPRPRPRPRQFPRP,0.196
2,RRIRLRPPRLPRPRPRPRQGPRP,0.252
3,RRIRLRPPRLPRPRPRPRRCPRP,0.356
4,RRIRLRPPRLPRPRPRPRTCPRP,-0.258
5,RRIRLRPPRLPRPRPRPRTSPRP,0.288
6,RRIRLRPPRLPRPRPRPRVRPRP,0.325
7,RRIRLRPPRLPRPRPRPRVVPRP,-0.0437
8,RRIRLRPPRLPRPRPRPRWNPRP,-0.0729
9,RRIRLRPPRLPRPRPRPRWSPRP,0.129
10,RRIRLRPPRLPRPRPRPRYFPRP,-0.319
11,RRIRLRPPRLPRPRPRPSADPRP,0.07
12,RRIRLRPPRLPRPRPRPSALPRP,-0.0136
13,RRIRLRPPRLPRPRPRPSCWPRP,0.0662
14,RRIRLRPPRLPRPRPRPSEKPRP,-0.0219
15,RRIRLRPPRLPRPRPRPSGFPRP,-0.259
16,RRIRLRPPRLPRPRPRPSHCPRP,-0.117
17,RRIRLRPPRLPRPRPRPSISPRP,-0.655
18,RRIRLRPPRLPRPRPRPSKFPRP,-0.276
19,RRIRLRPPRLPRPRPRPSKHPRP,-0.642
20,RRIRLRPPRLPRPRPRPSKMPRP,-0.212
21,RRIRLRPPRLPRPRPRPSMAPRP,-0.0685
22,RRIRLRPPRLPRPRPRPSMEPRP,-0.371
23,RRIRLRPPRLPRPRPRPSNEPRP,-0.299
24,RRIRLRPPRLPRPRPRPSNMPRP,-0.406
25,RRIRLRPPRLPRPRPRPSREPRP,-0.104

row,Sequence,shrunken log2 fold change
1,RRIRLRPPRLPRPRPRPSTCPRP,-0.179
2,RRIRLRPPRLPRPRPRPSTLPRP,-0.552
3,RRIRLRPPRLPRPRPRPSTMPRP,-0.407
4,RRIRLRPPRLPRPRPRPSWCPRP,-0.277
5,RRIRLRPPRLPRPRPRPSYAPRP,-0.134
6,RRIRLRPPRLPRPRPRPSYFPRP,-0.452
7,RRIRLRPPRLPRPRPRPSYVPRP,-0.13
8,RRIRLRPPRLPRPRPRPTCGPRP,0.281
9,RRIRLRPPRLPRPRPRPTCTPRP,-0.0583
10,RRIRLRPPRLPRPRPRPTCVPRP,0.0314
11,RRIRLRPPRLPRPRPRPTDSPRP,2.57
12,RRIRLRPPRLPRPRPRPTEFPRP,0.0447
13,RRIRLRPPRLPRPRPRPTEGPRP,0.166
14,RRIRLRPPRLPRPRPRPTETPRP,-0.021
15,RRIRLRPPRLPRPRPRPTFAPRP,0.394
16,RRIRLRPPRLPRPRPRPTFEPRP,-0.336
17,RRIRLRPPRLPRPRPRPTGHPRP,0.0863
18,RRIRLRPPRLPRPRPRPTGMPRP,0.056
19,RRIRLRPPRLPRPRPRPTIDPRP,-0.521
20,RRIRLRPPRLPRPRPRPTIFPRP,0.205
21,RRIRLRPPRLPRPRPRPTKFPRP,-0.0571
22,RRIRLRPPRLPRPRPRPTKMPRP,0.0743
23,RRIRLRPPRLPRPRPRPTLEPRP,-0.244
24,RRIRLRPPRLPRPRPRPTLQPRP,0.0553
25,RRIRLRPPRLPRPRPRPTMAPRP,-0.283

row,Sequence,shrunken log2 fold change
1,RRIRLRPPRLPRPRPRPTMFPRP,-0.0861
2,RRIRLRPPRLPRPRPRPTMKPRP,-0.0755
3,RRIRLRPPRLPRPRPRPTPVPRP,0.559
4,RRIRLRPPRLPRPRPRPTQAPRP,0.507
5,RRIRLRPPRLPRPRPRPTQNPRP,0.404
6,RRIRLRPPRLPRPRPRPTQTPRP,-0.0101
7,RRIRLRPPRLPRPRPRPTQVPRP,0.452
8,RRIRLRPPRLPRPRPRPTSWPRP,0.199
9,RRIRLRPPRLPRPRPRPTSYPRP,-0.395
10,RRIRLRPPRLPRPRPRPTVQPRP,-0.191
11,RRIRLRPPRLPRPRPRPTVTPRP,-0.0848
12,RRIRLRPPRLPRPRPRPTWSPRP,0.201
13,RRIRLRPPRLPRPRPRPTYCPRP,-1
14,RRIRLRPPRLPRPRPRPVAYPRP,-0.438
15,RRIRLRPPRLPRPRPRPVCRPRP,0.091
16,RRIRLRPPRLPRPRPRPVECPRP,0.0709
17,RRIRLRPPRLPRPRPRPVENPRP,-0.209
18,RRIRLRPPRLPRPRPRPVFVPRP,-0.198
19,RRIRLRPPRLPRPRPRPVGEPRP,0.12
20,RRIRLRPPRLPRPRPRPVGLPRP,0.144
21,RRIRLRPPRLPRPRPRPVGQPRP,0.0826
22,RRIRLRPPRLPRPRPRPVGTPRP,0.00938
23,RRIRLRPPRLPRPRPRPVHQPRP,0.244
24,RRIRLRPPRLPRPRPRPVHSPRP,0.00898
25,RRIRLRPPRLPRPRPRPVIKPRP,-0.111

row,Sequence,shrunken log2 fold change
1,RRIRLRPPRLPRPRPRPVIQPRP,-0.0903
2,RRIRLRPPRLPRPRPRPVKIPRP,-0.169
3,RRIRLRPPRLPRPRPRPVLIPRP,-0.303
4,RRIRLRPPRLPRPRPRPVLKPRP,0.0956
5,RRIRLRPPRLPRPRPRPVMSPRP,-0.152
6,RRIRLRPPRLPRPRPRPVNMPRP,-0.306
7,RRIRLRPPRLPRPRPRPVNYPRP,-0.231
8,RRIRLRPPRLPRPRPRPVPDPRP,0.00559
9,RRIRLRPPRLPRPRPRPVPLPRP,-0.174
10,RRIRLRPPRLPRPRPRPVPTPRP,0.0616
11,RRIRLRPPRLPRPRPRPVQQPRP,0.053
12,RRIRLRPPRLPRPRPRPVRPPRP,-0.0457
13,RRIRLRPPRLPRPRPRPVRWPRP,0.928
14,RRIRLRPPRLPRPRPRPVSFPRP,0.0353
15,RRIRLRPPRLPRPRPRPVVSPRP,-0.054
16,RRIRLRPPRLPRPRPRPVWLPRP,0.242
17,RRIRLRPPRLPRPRPRPWAVPRP,0.0558
18,RRIRLRPPRLPRPRPRPWCCPRP,-0.234
19,RRIRLRPPRLPRPRPRPWFPPRP,-0.157
20,RRIRLRPPRLPRPRPRPWGEPRP,-0.0317
21,RRIRLRPPRLPRPRPRPWKAPRP,-0.0344
22,RRIRLRPPRLPRPRPRPWLGPRP,0.181
23,RRIRLRPPRLPRPRPRPWMFPRP,-0.108
24,RRIRLRPPRLPRPRPRPWMGPRP,-0.363
25,RRIRLRPPRLPRPRPRPWMPPRP,-0.0741

row,Sequence,shrunken log2 fold change
1,RRIRLRPPRLPRPRPRPWNQPRP,0.0295
2,RRIRLRPPRLPRPRPRPWPCPRP,0.209
3,RRIRLRPPRLPRPRPRPWPEPRP,0.243
4,RRIRLRPPRLPRPRPRPWPGPRP,0.0987
5,RRIRLRPPRLPRPRPRPWPPPRP,0.668
6,RRIRLRPPRLPRPRPRPWRVPRP,0.488
7,RRIRLRPPRLPRPRPRPWSDPRP,-0.188
8,RRIRLRPPRLPRPRPRPWSRPRP,-0.264
9,RRIRLRPPRLPRPRPRPWTEPRP,-0.01
10,RRIRLRPPRLPRPRPRPWTMPRP,-0.202
11,RRIRLRPPRLPRPRPRPWVGPRP,0.233
12,RRIRLRPPRLPRPRPRPWVPPRP,-0.569
13,RRIRLRPPRLPRPRPRPWVQPRP,-0.118
14,RRIRLRPPRLPRPRPRPWWHPRP,0.0812
15,RRIRLRPPRLPRPRPRPYAFPRP,0.0808
16,RRIRLRPPRLPRPRPRPYAKPRP,0.0695
17,RRIRLRPPRLPRPRPRPYCIPRP,-0.121
18,RRIRLRPPRLPRPRPRPYCQPRP,-0.797
19,RRIRLRPPRLPRPRPRPYDEPRP,-0.353
20,RRIRLRPPRLPRPRPRPYDGPRP,0.0118
21,RRIRLRPPRLPRPRPRPYDQPRP,-0.562
22,RRIRLRPPRLPRPRPRPYENPRP,-0.0259
23,RRIRLRPPRLPRPRPRPYEWPRP,-0.00151
24,RRIRLRPPRLPRPRPRPYISPRP,-0.374
25,RRIRLRPPRLPRPRPRPYKTPRP,-0.352

row,Sequence,shrunken log2 fold change
1,RRIRLRPPRLPRPRPRPYLDPRP,0.0027
2,RRIRLRPPRLPRPRPRPYLTPRP,-0.663
3,RRIRLRPPRLPRPRPRPYMAPRP,-0.608
4,RRIRLRPPRLPRPRPRPYPHPRP,-0.323
5,RRIRLRPPRLPRPRPRPYPYPRP,-0.076
6,RRIRLRPPRLPRPRPRPYRCPRP,-0.268
7,RRIRLRPPRLPRPRPRPYSNPRP,-0.212
8,RRIRLRPPRLPRPRPRPYTAPRP,-0.863
9,RRIRLRPPRLPRPRPRPYVEPRP,-0.322
10,RRIRLRPPRLPRPRPRPYVRPRP,0.0394
11,RRIRLRPPRLPRPRPRPYWIPRP,-0.00778
12,RRIRLRPPRLPRPRPRPYYIPRP,-0.982
13,RRIRMRPPRLPRPRPRPAADPRP,2.81
14,RRIRMRPPRLPRPRPRPAAGPRP,1.56
15,RRIRMRPPRLPRPRPRPAAPPRP,1.65
16,RRIRMRPPRLPRPRPRPADRPRP,0.707
17,RRIRMRPPRLPRPRPRPAELPRP,0.604
18,RRIRMRPPRLPRPRPRPAEQPRP,0.395
19,RRIRMRPPRLPRPRPRPAFPPRP,-0.104
20,RRIRMRPPRLPRPRPRPAGCPRP,0.842
21,RRIRMRPPRLPRPRPRPAGNPRP,0.396
22,RRIRMRPPRLPRPRPRPAGTPRP,0.627
23,RRIRMRPPRLPRPRPRPAKCPRP,0.147
24,RRIRMRPPRLPRPRPRPAKKPRP,0.209
25,RRIRMRPPRLPRPRPRPAKQPRP,1.12
